# Measured values taken from PMC10863982 (2024).
# T1: GST-CTU2 (Arabidopsis thaliana (Mouse-ear cress), UniProt O65628)
# T1 chain: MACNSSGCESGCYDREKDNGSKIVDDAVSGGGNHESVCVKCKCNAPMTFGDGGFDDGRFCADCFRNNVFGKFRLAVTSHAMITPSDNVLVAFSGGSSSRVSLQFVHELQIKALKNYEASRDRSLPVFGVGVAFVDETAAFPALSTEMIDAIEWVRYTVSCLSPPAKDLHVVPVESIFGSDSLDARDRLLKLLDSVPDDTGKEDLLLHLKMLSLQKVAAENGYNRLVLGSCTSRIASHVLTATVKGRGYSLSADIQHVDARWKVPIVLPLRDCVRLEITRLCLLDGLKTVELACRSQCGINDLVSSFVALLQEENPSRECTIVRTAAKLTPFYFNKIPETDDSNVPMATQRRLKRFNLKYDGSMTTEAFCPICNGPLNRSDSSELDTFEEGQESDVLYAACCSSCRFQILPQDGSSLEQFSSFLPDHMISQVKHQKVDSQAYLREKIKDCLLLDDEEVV
# B1: ROL5-His (protein)
# chain: MEAKNKKAVASRLCCLCNLRRPVLKRPKTLQQICRECFYEVFEEEIHQVIVQNRLFKSGERVAIGASGGKDSTVLAYVLSELNRRHNYGLDLFLLSIDEGITGYRDDSLETVKRNEVQYGLPLKIVSYKDLYGWTMDEIVKMIGLKNNCTFCGVFRRQALDRGAALLKVEKLVTGHNADDIAETVLLNILRGDIARLSRCTSITTGEDGPIPRCKPFKYTYEKEIVMYAYFKKLDYFSTECIYSPNAYRGFAREFIKDLERIRPRAILDIIKSGEDFRIATTTKMPEQGTCERCGYISSQKWCKACVLLEGLNRGLPKMGIGRPRGVNGDHNKETKKPGSVAKSIESKQCGSLDF
# Target: T1, GST-CTU2
# Assay: GST pull-down
binder,measurement,value
B1,binding result,binds
